# Laboratory results reported in IntAct's records for PubMed 26051712.
# B1: Inner nuclear membrane protein HEH2 (Saccharomyces cerevisiae), Q03281 (parent)
# chain: MDHRNLDPKTLKVSQLRRVLVENDVAFPANARKPVLVKLFEEKVRQRLQSSPEASKVRTSIQKVVKSGAKNADRKKTLKSKKLESSSSESKTVKDENVETNKRKREQISTDNEAKMQIQEEKSPKKKRKKRSSKANKPPESPPQSKSDGKATSADLTSELETVEELHKKDSSDDKPRVKELPKPELPNLKVSNEFLAQLNKELASAATENYDHSIKSTDLSSIRIETEEPVGPSTGAETRNESEVMENINLEVQPEVKEAKEELTKISETFDNQDEEDTSRLSSKKNIRSPKGRTRHFIANKTKRGIDIMKPFIAHLFIWLWNGAIFLSIICPILFGLWYREQRIQVGYCGHEKPLKSLAISAFPQTERVDSVLQAYRPNCLECPEHGICSSFMNVECEPGYEPKSSILETYGIIPFPKYCAKDESKEKEVDELVWKVNEYLKKKNAQHECGEGENLFESGETETKLYDIFSHSRPSWESQREFNDHWKNVLEILKKKDDIIWLPLDFETNGKREKSKSNNTNYIYRSTSKKWVTLQCHLEGDIQEYITKYGGSLFITLGVLFLIKKIQSTLDNYVQGEQIIEKLVKEAIDKLKDVKKNKGEEPFLTTVQLRATLLSDIPNIKEQNNLWAQTKEKIMKEQSENIELYLLEENGEIMTCWEWKE
# B2: Inner nuclear membrane protein SRC1 (Saccharomyces cerevisiae), Q03707 (parent)
# chain: MNSDLEYLEDGFDPNSMKVATLRRILVENNVDFPSNARKNALVGLFDEKVKPQIPQLRKMYLNVRPSDEGIVKMDRPSSSPSIASPRRSRRARREKSASPMAKQFKKNRILDDVSNDDDDDDDDDDDNDKKDDPLIVPSGTDTDEVDDEEDDVITSSSNKSDTNDFQQNSDTRKKRKDPDSDDWSESNSKENKIDNKHLNLLSSDSEIEQDYQKAKKRKTSDLNQEHGNGSAILGKLSVKTPIKNTNRKPVSMDNFNDSLTSSGTENDPFVPNIRHNPKELGTANGTGHSTPLSKLKVSASFADKLPQKEVPSTILVPEVEQQEPSQSERTPSLFSSEGSGSESEAPLLPEITTPGPHQPMGNTSNNVVEMIDTDSSNLVSDEDEVLVPTRIETPQLPTEKDVEKCEARVQELQEEVNEQLEHENGSEFDVKQGSGKVGNRHKFKRALKFLSKSLLALFLFCIFIVIPLLFGLWYREQRLLIGYCGHEVPSHRVSGNSFEFIQKLDNLLQDYRPKCIPCPPNGICYPYLKLKCKPDYKLAPSRLDFLEIIPAQGKCVKDDKKQQLVSEVVEKSLEFLRAKNAQISCGDGKDDIESGMTEDALYQIFNEARAPWIRDDEFEDLWIQVIKDLTEEPEILWRQLSPTDNNIGGNSNNIIKTNDVPRQKRHLPEKFISKTRNFRSTSKKYIGMKCRFEREIYQTYKKFQRPIWLMFLLIVISKVIEIKLKNYYRKKARIEELVTQTMEKLKFQKIKSMSDPKENAYLSIVQLRDIFLSDIVDLKYKNQLWSEVVKYLEHNNSNIKSNLTEIRGEIMKCWEWIGPMELNEPKDSAENKI
# Variants of: B1
# Conditions: with ima1_yeast SRP1, Q02821
# Sequence of ima1_yeast SRP1, Q02821 (Q02821 whole entry): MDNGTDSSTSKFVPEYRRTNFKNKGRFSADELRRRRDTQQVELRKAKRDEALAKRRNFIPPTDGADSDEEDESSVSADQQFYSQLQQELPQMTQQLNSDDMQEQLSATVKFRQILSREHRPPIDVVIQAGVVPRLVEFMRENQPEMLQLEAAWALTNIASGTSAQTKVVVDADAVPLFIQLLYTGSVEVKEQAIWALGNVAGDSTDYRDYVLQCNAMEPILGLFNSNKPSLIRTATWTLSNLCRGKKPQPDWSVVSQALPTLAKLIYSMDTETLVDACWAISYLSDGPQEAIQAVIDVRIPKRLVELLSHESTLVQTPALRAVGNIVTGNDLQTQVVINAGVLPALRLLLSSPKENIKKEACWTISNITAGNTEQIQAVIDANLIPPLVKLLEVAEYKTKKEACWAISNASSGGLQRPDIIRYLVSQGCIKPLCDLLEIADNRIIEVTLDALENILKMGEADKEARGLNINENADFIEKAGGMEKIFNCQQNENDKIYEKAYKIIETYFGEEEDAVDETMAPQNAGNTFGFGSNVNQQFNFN
row,Variant,effect of a mutation on the interaction
1,R103A;K126A,decreasing interaction strength
2,R103A,decreasing interaction strength
3,K126A,decreasing interaction strength

# Variants of: B2
# Conditions: with ima1_yeast SRP1, Q02821
row,Variant,effect of a mutation on the interaction
1,R176A,decreasing interaction strength
2,R176A;K190A,decreasing interaction strength

# Variants of: B2
# Conditions: with ima1_yeast SRP1, Q02821
# Remark: another data set of the same source
row,Variant,effect of a mutation on the interaction
1,K190A,decreasing interaction strength
